Experimental data as given in patent US20080292619A1, “Pharmaceutical Composition Containing Meltrin Antagonist” (MOCHIDA PHARMACEUTICAL CO., LTD., priority 2004, published 2008).

Molecular target: T1, meltrin α (Homo sapiens, UniProt O43184, E208G/T209S)
T1 construct: had been converted to mature meltrin α having the prodomain deleted (molecular weight 68 kDa); made in house; host or cells: COS-1
T1 sequence (O43184 208-738 isoform O43184-2 E208G/T209S): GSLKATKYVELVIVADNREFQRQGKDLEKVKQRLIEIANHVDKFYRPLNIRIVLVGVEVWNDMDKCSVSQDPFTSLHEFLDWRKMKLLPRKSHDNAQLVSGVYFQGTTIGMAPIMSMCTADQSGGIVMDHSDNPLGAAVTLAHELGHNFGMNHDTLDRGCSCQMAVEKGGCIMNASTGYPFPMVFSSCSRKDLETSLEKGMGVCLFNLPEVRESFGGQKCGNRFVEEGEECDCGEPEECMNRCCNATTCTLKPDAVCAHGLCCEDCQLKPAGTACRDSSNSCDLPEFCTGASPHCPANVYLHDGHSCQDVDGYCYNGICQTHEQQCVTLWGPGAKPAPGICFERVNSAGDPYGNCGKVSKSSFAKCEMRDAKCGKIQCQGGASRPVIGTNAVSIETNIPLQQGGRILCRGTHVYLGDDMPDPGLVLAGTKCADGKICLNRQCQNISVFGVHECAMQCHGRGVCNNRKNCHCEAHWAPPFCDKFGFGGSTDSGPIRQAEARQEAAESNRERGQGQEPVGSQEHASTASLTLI
Test: Inhibition of protease activity of meltrin α (rhIGF-BP3 cleavage, western blotting)
Type: biochemical
Conditions: antibody 300 μg/mL; rhIGF-BP3 band
Description: Thrombin (Amersham Biosciences) was added to the purified meltrin α-STFLAG prepared in Example 5, and mixture was kept at 25° C. for 15 hours. When the solution after the reaction was examined by repeating the procedure of Example 5, the human meltrin α containing the prodomain (molecular weight 92 kDa) had been converted to mature meltrin α having the prodomain deleted (molecular weight 68 kDa). For measuring the enzymatic activity of the meltrin α, the solution after the prodomain cleavage with thrombin followed by inactivation of the thrombin by 10 mM APMSF (Wako Pure Chemical Industries, Ltd.) was used. The disappearance of the thrombin activity was confirmed by using the synthetic substrate for the thrombin on the reaction solution. […]
The anti-human meltrin α antibodies produced in Examples 6 and 7 were evaluated on their activity for inhibiting protease activity of meltrin α by using the protease activity assay system of Example 9. […] After the reaction, the reaction solution was electrophoresed by SDS-PAGE, and the rhIGF-BP3 was detected by western blotting.
According to the method of Example 9, activity of the low molecular weight compound for inhibiting protease activity of the meltrin α was assayed as described below. […] After the reaction, the reaction solution was electrophoresed by SDS-PAGE, and the rhIGF-BP3 was detected by western blotting.

B1: F1196-113-1: anti-meltrin α monoclonal antibody clone (antibody, V domains shown)
VH: EVKLLESGGGLVQPGGSLKLSCAASGFDFSRYWMSWVRQAPGKGLEWIGEINPDSSTINYTPSLKDKFIISRDNAKNTLYLHMSKVRSEDTALYYCARPDSYYRYYAMDYWGQGTSVTVSSAKTTA
VL: DIQMTQTTSSLSASLGDRVTISCRASQDISNYLNWYQQKPDGTVKLLIYYTSRLHSGVPSRFSGSGSGTDYSLTISNQEQEDIATYFCQQGNTLPYTFGGGTKLEIKR
- activity for inhibiting protease activity of meltrin α: inhibitory activity for the meltrin α protease activity has been confirmed
